Test results published in article PMC2848764, “The Arabidopsis EAR-motif-containing protein RAP2.1 functions as an active transcriptional repressor to keep stress responses under tight control”.

B1: mDRE (dsDNA)
DNA 1: AATTCAAAAGATATACTACTTTTATGAGTT
DNA 2: AACTCATAAAAGTAGTATATCTTTTGAATT
B2: wDRE (dsDNA)
DNA 1: AATTCAAAAGATATACTACCGACATGAGTT
DNA 2: AACTCATGTCGGTAGTATATCTTTTGAATT

Target: GST-RAP2.1 N-terminal 120 aa (AP2 DNA-binding domain) (UniProt Q8LC30 1-120)
Experiment: EMSA; 100 ng probe, 5 or 10 ug protein; EMSA as in cited ref 42; buffer, salt, pH and temperature not given; 100 ng probe with 5 or 10 ug protein
Settings: protein: recombinant; tags: GST (pGEX6P-1, N-terminal)

Sequence of GST-RAP2.1 N-terminal 120 aa (AP2 DNA-binding domain) (Q8LC30 1-120): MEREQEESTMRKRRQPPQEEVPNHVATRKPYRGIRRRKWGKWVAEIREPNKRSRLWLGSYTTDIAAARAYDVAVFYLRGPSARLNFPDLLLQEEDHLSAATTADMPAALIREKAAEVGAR

Row | Binder | binding result
1 | B1 | no binding
2 | B2 | binds
